Numbering of substitutions follows the chain as printed.

The record followed here is patent publication US20140289906A1, “Compositions Having Dicamba Decarboxylase Activity and Methods of Use” (priority 2013, published 2014).

To fix the notation:
B1: 33 (protein, listed as Rhizobium leguminosarum)
chain: MAQGKIALEEHFAIPETLQDSAGFVPGDYWKELSARLLDIQEKRLRLMDAHGIEKMILSLNAPAVQAIPDRAKALEISRRANDFLAEQCVKNPNRFLGFAALPLQDPDAATQELQRCVTTMGFVGALVNGFSQEGDGTTPLYYDLPQYRSFWAEVEKLNVPFYLHPRNPLPQDSRIYAGHSWLMGPTWAFAQETAVHALRLMGSGLFDEHPALRIIVGHMGEGLPYMMWRIDNRNAWVKVEKSYPAKRPIADYFNENFYITTSGNFRTQSLIDAMLEIGADRILFSADWPFENIDHAANWFDSATISEADRLKIGRTNAVSLFKLDR
B2: 43 (protein, listed as Rhizobium leguminosarum)
chain: B1 chain with K31T, E42D, A50T, R71K, L75V, S150P, N159D, I294V
B3: 28 (protein, listed as Sphingomonas paucimobilis)
chain: MARLIATEEAVTFQPVVDALRAHSRTDDASLDMILVRDVYGDEPARPAMIGRLSDVTGERLAEMDSNGVDMHLLSLTAPGVQMFDAETGTRLARIANDLMAQTVAANPTRFAGLGTFAPQDPASAAREIERVATQLRLNGLVINSHTNDLYYDDPFFHPVFEAIEASGLALYIHPRAPSKQIDRAFRDYGMNSAIWGYGIETSTNAVRMILSGLFDRFPRLKIVLGHMGEAIPFWLWRLDYMHGNATTFGGAPKLKLKPSEYFRRNFAITTSGVESHAALRYSIEVLGPENVMWAIDYPYQPMAPAVQFIRTAPIPEDVKAMVAGGNAARIFRIT
B4: 30 (protein)
chain: MARGKIALEEHVSTPENNRLWDSTGEANRNGSEYMQDVERRLLDRSIQLEEMAQRNIDHVILSLTSPGAQSILDKAKAVSFARDTNDFIVDNYVKPNPDKFSAFATLALQNPEAAAEELERAVKKLGMKGALINGYTNVKDSEHGLYLDDESMLVFWDKVNELNVPVYLHPREPLEGPARGIYTGYESLIGSAWGFAQETAVHAIRLMMSGLFDRYPNLNLVLGHLGEGLVHMLPRTQHRLYRQRFGCGLGKAEKPLMHYLQNNFIVTTSGHFNTHSLNNAIEVMGADRVMFSVDYPYEDIHQACDWFDPLEMDEGLKEKIAWGNASRVFNIK
modifications: Enterobacter aerogenes
B5: 31 (protein, listed as Agrobacterium sp.)
chain: MAQGKVALEEHFAIPETLQDSAGFVPGDYWKELQHRLLDIQDTRLKLMDAHGIETMILSLNAPAVQAIPDKTKAIEIARRANDVLAEECAKRPDRFLAFAALPLQDPDAATEELQRCVNDLGFVGALVNGFSQEGDGQTPLYYDLPQYRPFWGEVEKLDVPFYLHPRNPLPQDSRIYDGHPWLLGPTWAFAQETAVHALRLMASGLFDEHPRLNIILGHMGEGLPYMMWRIDHRNAWVKLPPRYPAKRRFMDYFNENFHITTSGNFRTQTLIDAILEIGADRILFSTDWPFENIDHASDWFNATSIAEADRVKIGRTNARRLFKLDGA
B6: 36 (protein, listed as Agrobacterium sp.)
chain: B5 chain with K31T, V84A, D94N, E112Q, T139I, M251V, N302H, A328R
B7: 48 (protein, listed as Amycolatopsis mediterranei)
chain: MASMKLYGLEEHFVTADVIEAWRRRDPGLAEPMMKWAVASDITPALLDVDGGRIAAMDDAGIDTTVLSLTTPGLQNLDAAEAVALQAPTNDLIAAAVRRHPGRFQGFATLATSAPAAAADELRRAVTELGLNGALVNANSRGRALDAPGFWDIYEAAEDLRAPVYLHPGVPVPAVTEAYYRGFGEPVNSMLATGAFGWHYDAGLTILRMIVAGVFDRFPGLQVILGHWGEVVLFYLDRVAAMDKLTALRRPIAEYFRSNIFITPGGISSHKYLRWSLETVGVERIMYASDYPFNTERAGSARRFLDTAPVDEAGRERIAYRNWEELIAGIRR
B8: 34 (protein)
chain: MAQGKIGLEEHFAIPETLNDSAGFVPGDYWKELSRRLLDIQDDRLRQMDENGMEMMLLSLNAPAVQAVPDRKQACELAVRANDFLAEQVSRRPDRFQALAALPLQDPDFATVELTRCVNELGMRGALVNGFSQIDTPDNVVYYDAPQYASFWAAVEKLDVPFYLHPRNPIASWAQIYDGHPWLLGPTWAFGQETAVHALRLMASGLFDRHPALQIVLGHLGEGLPYSLWRIDNRNAWVKAPKTHPAKKTFRHYFQQNFHLTTSGNFHNQTLIDAILEIGADRILFSTDWPFENIDHAAKWFDSASISEADRTKIGRTNAMKLFKLVA
modifications: Cupriavidus necator
B9: 35 (protein)
chain: MAFKASRKIALEEHFAIDATVQDSAGFVPPSYWAELKRRLLDIHDRRIDEMDRNGVELMVLSLNAPTVQAVPNIKDAYDLSRRANDFLAEQIVKRPERFKGFAALPMQSPDLAARELERCVKELNFVGALVNGFSQVEESGTALYYDLPQYRQFWSVVQALDVPFYLHPRNPLPAHAPIYEGHPWLLGPTWAFGQETAVHALRLMGSGLFDEYPELKIILGHMGEGLPYSMWRIDNRNAWVETQPNYPAKKRIAEYFHKNFWLTTSGNFRTQTLIDAMLEIGSDRILFSTDWPFENVDHAAQWFDDAAISENDRIKIARTNAARLFKLEP
modifications: Burkholderia sp
B10: 46 (protein, listed as Rhodococcus opacus)
chain: MARIITLEEHYLDPAIAAASAPLARELSPDFAAAYDPASGLSYTPSAQVLQDLGQRRIADMDTHGISMQVLSCLTTQQVPADVAPDLVRAANDTAAAAVRAHPDRFAAFAALPTTAPDAAATELARCIDDLGFVGTMINGRTDGEFLDAPRFDPILATAAARNVPIYLHPAVPPRATSDSNYAGLAPLVTARLQTSAWGWHQETAVHFLHLVLSGVLDRYPNLQFILGHWGEMIPFYLDRLDEALPQAVTNLDRTISDYVRENVYITPSGMFNQAQLQYCVETLGVDRILYSVDYPFIGNDGAVSFLDEANLPDEAKHQIAHQNTEKLLGL
B11: 47 (protein, listed as Serratia odorifera)
chain: MAKIICLEEHTLDKALVMASMPAALAQAPFLSDWGKTITDGNLPDRSRPQIEKNDLINVKGADIGRGRLDDMDEAGITMQVLSVGGFPHLISAAEGVDLNRAANDRLANAVNAHPDRFAAFATLPWAQPDAAEKELERAVKELGFKGALLNGRPSIHFLDHPDYDGLLARFNALGVPLYLHPGLPVRSVQQAYYSGFSDEVTARLSMFGWGWHHEAGIHLLRLILSGAFDKYPNLQVISGHWGEMLPFWLQRLDDSLPQAATGLRRTITQTFREQVYVTPSGMLTLPHFQFIYALLGAERILFSVDYPYQTLDGVKAFIQSLPVPEEAKEAIAFRNAERLFGLTS
B12: 44 (protein, listed as Mycobacterium avium)
chain: MARIITVEEHFQHPEVSARVAELTGPAVEGLAEFGNAFSLDPDSTARLGGNRLAHMDQVGIDVQVVSHGNGSPGTLQHPEAVELCRRVNNDLAAQIAENPDRFRGFATLPLYDPAAAAEELRRCVGDLGFVGALIAGSYDGLFLDDERFDPILTAAEAVDFPIYVHPGLPEAPVSQRYYAGSWPASVHMMFSGPAFGWHAEAGIHIVRLILSGALDRHPTLKLLSGHWGELAAFYLERLDETLGLLPTGLERAPSDYYRQQVWITPSGMYNQNQLNFMTAELGAQRIIYSEDFPYVVRDNVSTFLEQAGLSEADTHAIAHTNAEALLRI

The first data set in a line: 14C assay: 14CO2 capture from [14C]-carboxyl-labeled dicamba with IPTG-induced recombinant E. coli cells. As to conditions: IPTG-induced recombinant E. coli cells; 14CO2 from [14C]-carboxyl-labeled dicamba.
Regarding B1, the “Dicamba Decarboxylase Activity” value is reported as “High”.

For the molecule B2, the “Dicamba Decarboxylase Activity” value is “High”.

For the molecule B3, the “Dicamba Decarboxylase Activity” value is given as “High”.

Take B4: the “Dicamba Decarboxylase Activity” value is recorded as “High”.

B5: the “Dicamba Decarboxylase Activity” value is reported as “High”.

Consider B6, for which the “Dicamba Decarboxylase Activity” value is recorded as “High”.

Turning to B7, the “Dicamba Decarboxylase Activity” value was “High”.

On to B8, for which the “Dicamba Decarboxylase Activity” value is “High”.

With B9, the “Dicamba Decarboxylase Activity” value is given as “High”.

In the case of B10, the “Dicamba Decarboxylase Activity” value was “High”.

Regarding B11, the “Dicamba Decarboxylase Activity” value was “High”.

Turning to B12, the “Dicamba Decarboxylase Activity” value is “High”.

The same data set, now with this note: among the 108 sequences tested; recombinant E. coli cell assay.
With B1, the “decarboxylation activity of dicamba” value was “showed decarboxylation activity of dicamba”.

As to B2, the “decarboxylation activity of dicamba” value was “showed decarboxylation activity of dicamba”.

Take B3: the “decarboxylation activity of dicamba” value was “showed decarboxylation activity of dicamba”.

Turning to B4, the “decarboxylation activity of dicamba” value is given as “showed decarboxylation activity of dicamba”.

For B5, the “decarboxylation activity of dicamba” value was “showed decarboxylation activity of dicamba”.

As for B6, the “decarboxylation activity of dicamba” value is given as “showed decarboxylation activity of dicamba”.

Regarding B7, the “decarboxylation activity of dicamba” value is on record as “showed decarboxylation activity of dicamba”.

On to B8, for which the “decarboxylation activity of dicamba” value was “showed decarboxylation activity of dicamba”.

As for B9, the “decarboxylation activity of dicamba” value is recorded as “showed decarboxylation activity of dicamba”.

For the molecule B10, the “decarboxylation activity of dicamba” value was “showed decarboxylation activity of dicamba”.

B11: the “decarboxylation activity of dicamba” value was “showed decarboxylation activity of dicamba”.

Consider B12, for which the “decarboxylation activity of dicamba” value was “showed decarboxylation activity of dicamba”.

Still in this data set, the particulars now being: dicamba decarboxylation activity.
Take B1: the “Enzymatic Detection level” value was “High”.

On to B2, for which the “Enzymatic Detection level” value is listed as “High”.

Regarding B3, the “Enzymatic Detection level” value is on record as “High”.

On to B4, for which the “Enzymatic Detection level” value is on record as “High”.

Regarding B5, the “Enzymatic Detection level” value is given as “High”.

Consider B6, for which the “Enzymatic Detection level” value is given as “High”.

For B7, the “Enzymatic Detection level” value is “High”.

On to B8, for which the “Enzymatic Detection level” value was “High”.

Consider B9, for which the “Enzymatic Detection level” value was “High”.

Consider B10, for which the “Enzymatic Detection level” value was “High”.

For the molecule B11, the “Enzymatic Detection level” value is listed as “High”.

Regarding B12, the “Enzymatic Detection level” value was “High”.
